Reference: article PMC9477884 (Communications Biology, 2022)

Columns and labels:
[1] = target: the molecule itself; assay: SEC-MALS; MazE6 in solution; observed mol. wt. 17 kDa
[2] = target: T1, MazE6 (UniProt P9WJ87 1-82); assay: gel filtration; conditions: protein: recombinant; chain copies: 2; blunt
T1 sequence: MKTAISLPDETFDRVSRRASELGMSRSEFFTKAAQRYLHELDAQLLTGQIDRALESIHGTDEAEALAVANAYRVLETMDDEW

B1: MazE6 antitoxin (residue 1-82) (natural protein)
chain: T1 sequence
- stoichiometry N [1]: 2

B2: mazEF6 operator DNA (dsDNA)
DNA 1: CCGGTTATACTATCTGTA
DNA 2: TACAGATAGTATAACCGG
- binding result [2]: binds
